Results from publication PMC5389554 (Nucleic Acids Research, 2017).

Columns and labels:
non-reducing SDS-PAGE = molecular target: the molecule itself; assay: non-reducing SDS-PAGE
cross-linking = molecular target: the molecule itself; assay: cross-linking
[1] = molecular target: the molecule itself; assay: non-reducing SDS-PAGE with immunoblot

B1: GST-CNBP (recombinant cellular nucleic acid-binding protein with GST tag) (natural protein, mouse, UniProt P53996 1-178, looked up)
chain: MSSNECFKCGRSGHWARECPTGGGRGRGMRSRGRGGFTSDRGFQFVSSSLPDICYRCGESGHLAKDCDLQEDEACYNCGRGGHIAKDCKEPKREREQCCYNCGKPGHLARDCDHADEQKCYSCGEFGHIQKDCTKVKCYRCGETGHVAINCSKTSEVNCYRCGESGHLARECTIEATA
B1 was tested, and the “stoichiometry N” value (non-reducing SDS-PAGE) was 2.

B2: endogenous CNBP (cellular nucleic acid-binding protein) (natural protein, mouse (endogenous in RAW 264.7), UniProt P53996 1-178, looked up)
chain: B1 chain
With B2 the “stoichiometry N” value (cross-linking) was 2.

B3: CNBP-HA (wild type) (natural protein, mouse, UniProt P53996 1-178, looked up)
chain: B1 chain
In the case of B3, the “stoichiometry N” value [1] is reported as 2.
